Measured values from patent US20200199241A1 (Chugai, published 2020).
Positions count from the first letter of the chain named. Names may count otherwise.

T1: FcγRIIb (human, UniProt P31994 43-217, limits assumed)
T1 construct: also called FcgRIIb; FcγIIB
T1 sequence: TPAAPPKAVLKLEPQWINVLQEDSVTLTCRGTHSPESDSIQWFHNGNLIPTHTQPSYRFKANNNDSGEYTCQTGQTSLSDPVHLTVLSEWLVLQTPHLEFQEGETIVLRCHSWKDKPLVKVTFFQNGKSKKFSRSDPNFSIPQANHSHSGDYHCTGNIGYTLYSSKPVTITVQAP

T2: FcγRIIa type H (human, UniProt P12318 36-217)
T2 construct: also called FcγRIIaH; FcγRIIH
T2 sequence: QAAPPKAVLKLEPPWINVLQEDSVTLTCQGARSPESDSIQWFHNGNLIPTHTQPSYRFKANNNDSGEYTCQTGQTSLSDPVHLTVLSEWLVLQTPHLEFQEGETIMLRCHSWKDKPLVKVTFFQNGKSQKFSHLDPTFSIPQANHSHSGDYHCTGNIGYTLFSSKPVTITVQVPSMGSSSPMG

T3: FcγRIIb (human, UniProt P31994 43-217, limits assumed)
T3 construct: also called FcγIIB; CD32
T3 sequence: T1 sequence

T4: human FcγRIIa(H) (human, UniProt P12318 36-217)
T4 construct: also called hFcgRIIa(H); FcγRIIa type H
T4 sequence: T2 sequence

T5: human FcγRIIa(R) (human, UniProt P12318 36-217)
T5 construct: also called hFcgRIIa(R); FcγRIIa type R
T5 chain: T2 sequence with H133R

T6: FcγRIIa type H (human, UniProt P12318 36-217)
T6 construct: also called FcγRIIaH; FcγRIIa(H)
T6 sequence: T2 sequence

T7: FcγRIIa type R (human, UniProt P12318 36-217)
T7 construct: also called FcγRIIaR; FcγRIIa(R)
T7 chain: T2 sequence with H133R

B1: IL6R-2B169/IL6R-L (antibody, human IgG1)
heavy: QVQLQESGPGLVKPSETLSLTCAVSGHSISHDHAWSWVRQPPGEGLEWIGFISYSGITNYNPSLQGRVTISRDNSKNTLYLQMNSLRAEDTAVYYCARSLARTTAMDYWGEGTLVTVSSASTKGPSVFPLAPSSKSTSGGTAALGCLVKDYFPEPVTVSWNSGALTSGVHTFPAVLQSSGLYSLSSVVTVPSSSLGTQTYICNVNHKPSNTKVDKKVEPKSCDKTHTCPPCPAPELLGGDSVFLFPPKPKDTLMISRTPEVTCVVVDVSHEDPEVKFNWYVDGVEVHNAKTKPREEQYNSTYRVVSVLTVLHQDWLNGKEYKCKISNKALPAPIEKTISKAKGQPREPQVYTLPPSRDELTKNQVSLTCLVKGFYPSDIAVEWESNGQPENNYKTTPPVLDSDGSFFLYSKLTVDKSRWQQGNVFSCSVMHEALHNHYTQESLSLSP
light: DIQMTQSPSSLSASVGDRVTITCRASQDISSYLNWYQQKPGKAPKLLIYYTSRLHSGVPSRFSGSGSGTDFTFTISSLQPEDIATYYCQQGNTLPYTFGQGTKVEIK
notes: IgG1; Fc variant of IL6R-B3; copies: 2 + 2
B2: IL6R-BP110/IL6R-L (antibody, human IgG1)
heavy: B1 heavy with H270N, I325V
light: B1 light
notes: as for B1
B3: IL6R-BP912/IL6R-L (antibody, human IgG1)
heavy: B1 heavy with I325V, A332R
light: B1 light
notes: as for B1
B4: IL6R-BP121/IL6R-L (antibody, human IgG1)
heavy: B1 heavy with I325V, K328Q
light: B1 light
notes: as for B1
B5: IL6R-2B128/IL6R-L (antibody, human IgG1)
heavy: B1 heavy with Y298D, I325V
light: B1 light
notes: as for B1
B6: IL6R-BP195/IL6R-L (antibody, human IgG1)
heavy: B1 heavy with E235D, L236Y, G239D, H270D, P273G, Y298D, I325V, K328A, A332K
light: B1 light
notes: Anti-IL-6R human IgG1 variant; copies: 2 + 2
B7: IL6R-BP197/IL6R-L (antibody, human IgG1)
heavy: B1 heavy with E235D, L236Y, G239D, H270D, P273G, Y298D, I325V, K328D, A332K
light: B1 light
notes: as for B6
B8: IL6R-BP213/IL6R-L (antibody, human IgG1)
heavy: B1 heavy with E235D, H270D, P273G, I325V, A332R
light: B1 light
notes: as for B6
B9: IL6R-BP196/IL6R-L (antibody, human IgG1)
heavy: B1 heavy with L236Y, H270D, P273G, I325V, K328A, A332K
light: B1 light
notes: as for B6
B10: IL6R-BP209/IL6R-L (antibody, human IgG1)
heavy: B1 heavy with G239D, H270D, P273G, I325V, K328A, A332R
light: B1 light
notes: as for B6
B11: IL6R-BP206/IL6R-L (antibody, human IgG1)
heavy: B1 heavy with E235D, P273G, I325V, A332R
light: B1 light
notes: as for B6
B12: IL6R-BP208/IL6R-L (antibody, human IgG1)
heavy: B1 heavy with E235D, G239D, H270D, P273G, I325V, A332R
light: B1 light
notes: as for B6
B13: IL6R-BP211/IL6R-L (antibody, human IgG1)
heavy: B1 heavy with E235D, H270D, P273G, I325V, K328A, A332R
light: B1 light
notes: as for B6
B14: IL6R-BP203/IL6R-L (antibody, human IgG1)
heavy: B1 heavy with G239D, P273G, I325V, A332R
light: B1 light
notes: as for B6
B15: antibody with VH3-IgG1-F1324 heavy chain and L(WT)-CK light chain (antibody)
heavy: B1 heavy with L236A, L237A, D240P, M254Y, I325V, N436Y, Y438V, E441K
light: not shown
notes: L234A/L235A on VH3-IgG1-F890; copies: 2 + 2

molecular target: T1, FcγRIIb; assay: SPR (Biacore), FcγR over captured antibody

Kd | Binder
1200 nM | B1
1500 nM | B2
1500 nM | B3
1100 nM | B4
1400 nM | B5

molecular target: T8, FcγRIa (human, UniProt P12314 16-292, limits assumed); assay: SPR (Biacore), FcγR over captured antibody
T8 construct: also called FcgRIa; CD64
T8 sequence (P12314 16-292 limits assumed): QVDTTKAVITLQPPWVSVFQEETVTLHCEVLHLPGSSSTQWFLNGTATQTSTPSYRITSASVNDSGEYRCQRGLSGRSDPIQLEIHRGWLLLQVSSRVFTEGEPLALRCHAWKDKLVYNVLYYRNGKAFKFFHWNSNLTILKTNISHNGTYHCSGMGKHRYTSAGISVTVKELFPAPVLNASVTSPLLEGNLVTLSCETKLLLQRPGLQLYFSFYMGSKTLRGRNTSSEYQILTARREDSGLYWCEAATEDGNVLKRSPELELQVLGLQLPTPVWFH

Kd | Binder
25 nM | B1
7.3 nM | B2
38 nM | B3
11 nM | B4
13 nM | B5

molecular target: T2, FcγRIIa type H; assay: SPR (Biacore), FcγR over captured antibody

Kd | Binder
48000 nM | B1
47000 nM | B2
38000 nM | B3
44000 nM | B4
34000 nM | B5

molecular target: T9, FcγRIIIa type V (human, UniProt P08637 17-208, limits assumed); assay: SPR (Biacore), FcγR over captured antibody
T9 construct: also called FcγRIIIaV; FcgRIIIaV
T9 sequence (P08637 other isoform, or with tags, fused parts or gaps limits assumed): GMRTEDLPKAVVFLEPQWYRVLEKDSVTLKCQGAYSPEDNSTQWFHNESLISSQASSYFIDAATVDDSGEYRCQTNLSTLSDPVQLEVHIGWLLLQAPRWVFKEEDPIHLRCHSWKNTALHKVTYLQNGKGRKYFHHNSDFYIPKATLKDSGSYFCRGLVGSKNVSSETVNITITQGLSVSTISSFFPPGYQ

Kd | Binder
75000 nM | B1
64000 nM | B2
78000 nM | B3
52000 nM | B4
72000 nM | B5

molecular target: T3, FcγRIIb; assay: ratio of SPR KD values, parent IL6R-B3/IL6R-L

KD(IIb) of the parent polypeptide/KD(IIb) of altered polypeptide | Binder
62 fold | B6
53.7 fold | B7
17.6 fold | B8
13.9 fold | B9
60.4 fold | B10
15.8 fold | B11
95.4 fold | B12
13.8 fold | B13
63.7 fold | B14

molecular target: T3, FcγRIIb; assay: SPR (Biacore); KD for FcγRIIaH divided by KD for FcγRIIb of the same antibody; column head in Table 52-1
Description: (§1) Furthermore, KD(IIaR)/KD(IIb) and KD(IIaH)/KD(IIb) in the table respectively represent the value obtained by dividing the KD value of each variant for FcγRIIaR by the KD value of each variant for FcγRIIb, and the value obtained by dividing the KD value of each variant for FcγRIIaH by the KD value of each variant for FcγRIIb. KD(IIb) of the parent polypeptide/KD(IIb) of the altered polypeptide refers to the value obtained by dividing the KD value of the parent polypeptide for FcγRIIb by the KD value of each variant for FcγRIIb.

KD(IIaH)/KD(IIb) | Binder
201 | B6
209 | B7
136 | B8
85.2 | B9
195 | B10
123 | B11
256 | B12
120 | B13
227 | B14

molecular target: T1, FcγRIIb; assay: SPR (Biacore), KD of IL6R-B3/IL6R-L divided by KD of the variant
Description: as §1

KD(IIb) of the parent polypeptide/KD(IIb) of altered polypeptide | Binder
2.6 fold | B1
2.1 fold | B2
2.1 fold | B3
2.8 fold | B4
2.1 fold | B5

molecular target: T10, human FcγRIIIa(V) (human, UniProt P08637 17-208, limits assumed); assay: SPR, antibody captured by Protein L, human FcγR as analyte, pH 7.4, 25 C;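 also: biacore T100 or T200 with Protein L amine-coupled on a CM4 chip, FcγRs diluted in ACES saline with polysorbate 20, buffer-only injection as blank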
T10 construct: also called hFcgRIIIa(V); allotype V158
T10 sequence (P08637 other isoform, or with tags, fused parts or gaps limits assumed): as above
Protocol: (§2) Binding activity between the antibodies and human FcγRIa, FcγRIIa(H), FcγRIIa(R), FcγRIIb and FcγRIIIa(F) (hereinafter referred to as human FcγRs) was evaluated using the BIACORE™ T100 or T200 surface plasmon resonance system (GE Healthcare). The antibodies being tested were captured by Protein L (ACTIGEN® protein (Alltech)) that was immobilized in suitable amounts on the CM4 Sensor Chip (GE Healthcare) by amine coupling. Next, the diluted human FcγRs and a running buffer used as a blank were injected to allow interaction with the antibodies captured on the sensor chip. A buffer consisting of 20 mmol/L N-(2-acetamido)-2-aminoethanesulfonic acid (ACES), 150 mmol/L NaCl and 0.05% (w/v) polysorbate 20 (Tween 20®) (pH 7.4) was used for the running buffer, and this buffer was also used to dilute the human FcγRs. 10 mmol/L glycine-HCl (pH 1.5) was used to regenerate the sensor chip. All measurements were carried out at 25° C.

BINDING AMOUNT (RU) | Binder
39.5 RU | B15

molecular target: T11, human FcγRIa (human, UniProt P12314 16-292, limits assumed); assay: as above
T11 construct: also called hFcgRIa; hFcgRI
T11 sequence (P12314 16-292 limits assumed): as the sequence (P12314 16-292 limits assumed) above
Protocol: as §2

BINDING AMOUNT (RU) | Binder
227 RU | B15

molecular target: T4, human FcγRIIa(H); assay: as above
Protocol: as §2

BINDING AMOUNT (RU) | Binder
6.97 RU | B15

Molecular target: T5, human FcγRIIa(R)
Assay: as above
Protocol: as §2

BINDING AMOUNT (RU) | Binder
9.1 RU | B15

molecular target: T6, FcγRIIa type H; assay: SPR (Biacore), method of Example 14
Description: as §1

Kd | Binder
10000 nM | B6
12000 nM | B7
24000 nM | B8
19000 nM | B9
10000 nM | B10
24000 nM | B11
83000 nM | B12
27000 nM | B13
11000 nM | B14

molecular target: T12, FcγRIIIa type V (human, UniProt P08637 17-208, limits assumed); assay: SPR (Biacore), method of Example 14
T12 construct: also called FcγRIIIaV; FcγRIIIa(V)
T12 sequence (P08637 17-208 F176V limits assumed): as the sequence (P08637 other isoform, or with tags, fused parts or gaps limits assumed) above, with S179A counted along it
Description: as §1

Kd | Binder
31000 nM | B6
33000 nM | B7
63000 nM | B8
51000 nM | B9
41000 nM | B10
69000 nM | B11
53000 nM | B12
73000 nM | B13
72000 nM | B14

molecular target: T3, FcγRIIb; assay: SPR (Biacore), method of Example 14
Description: as §1

Kd | Binder
50 nM | B6
58 nM | B7
180 nM | B8
220 nM | B9
51 nM | B10
200 nM | B11
32 nM | B12
220 nM | B13
49 nM | B14

molecular target: T13, FcγRIa (human, UniProt P12314 16-292, limits assumed); assay: SPR (Biacore), method of Example 14
T13 construct: also called CD64
T13 sequence (P12314 16-292 limits assumed): as the sequence (P12314 16-292 limits assumed) above
Description: as §1

Kd | Binder
23 nM | B6
19 nM | B7
4.1 nM | B8
14 nM | B9
39 nM | B10
8.2 nM | B11
19 nM | B12
4.2 nM | B13
180 nM | B14

Molecular target: T7, FcγRIIa type R
Assay: SPR (Biacore), method of Example 14
Description: as §1

Kd | Binder
910 nM | B6
980 nM | B7
3100 nM | B8
3000 nM | B9
1200 nM | B10
3100 nM | B11
850 nM | B12
4100 nM | B13
990 nM | B14

molecular target: T3, FcγRIIb; assay: SPR (Biacore); KD for FcγRIIaR divided by KD for FcγRIIb of the same antibody; column head in Table 52-1
Description: as §1

KD(IIaR)/KD(IIb) | Binder
18.2 | B6
17.1 | B7
17.7 | B8
13.4 | B9
22.7 | B10
16.1 | B11
26.3 | B12
18.5 | B13
20.5 | B14
